Laboratory results: the supplement of paper PMC10567573

B1: NEK8 (parent)
chain: YTFGSNQHGQLGTNTRRGSRAPCK

Variants of: B1
Assay: protein stability index of a GFP-peptide fusion (GPS, HEK-293T) (PSI 1-6); higher = more stable
Settings: c terminus: a fixed tail appended
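Also: lentivirally expressed fusions sorted by FACS into six bins by GFP to DsRed ratio, PSI derived from sequencing read proportions per bin multiplied by bin number.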

Variant	protein stability index
YMFGSNQHGQLGTNTRRGSRAPCK [T2M]	4.5
YNFGSNQHGQLGTNTRRGSRAPCK [T2N]	4.61
YPFGSNQHGQLGTNTRRGSRAPCK [T2P]	4.18
YQFGSNQHGQLGTNTRRGSRAPCK [T2Q]	3.5
YRFGSNQHGQLGTNTRRGSRAPCK [T2R]	4.75
YSFGSNQHGQLGTNTRRGSRAPCK [T2S]	4.31
YVFGSNQHGQLGTNTRRGSRAPCK [T2V]	2.36
YWFGSNQHGQLGTNTRRGSRAPCK [T2W]	3.32
YYFGSNQHGQLGTNTRRGSRAPCK [T2Y]	4.24
YTAGSNQHGQLGTNTRRGSRAPCK [F3A]	3.31
YTCGSNQHGQLGTNTRRGSRAPCK [F3C]	3.58
YTDGSNQHGQLGTNTRRGSRAPCK [F3D]	4.11
YTEGSNQHGQLGTNTRRGSRAPCK [F3E]	4.32
YTGGSNQHGQLGTNTRRGSRAPCK [F3G]	2.29
YTHGSNQHGQLGTNTRRGSRAPCK [F3H]	3.94
YTIGSNQHGQLGTNTRRGSRAPCK [F3I]	3.89
YTKGSNQHGQLGTNTRRGSRAPCK [F3K]	4.32
YTLGSNQHGQLGTNTRRGSRAPCK [F3L]	3.99
YTMGSNQHGQLGTNTRRGSRAPCK [F3M]	4.13
YTNGSNQHGQLGTNTRRGSRAPCK [F3N]	3.95
YTPGSNQHGQLGTNTRRGSRAPCK [F3P]	2.02
YTQGSNQHGQLGTNTRRGSRAPCK [F3Q]	3.69
YTRGSNQHGQLGTNTRRGSRAPCK [F3R]	3.92
YTSGSNQHGQLGTNTRRGSRAPCK [F3S]	3.2

Variant	protein stability index
YTTGSNQHGQLGTNTRRGSRAPCK [F3T]	3.77
YTVGSNQHGQLGTNTRRGSRAPCK [F3V]	3.98
YTWGSNQHGQLGTNTRRGSRAPCK [F3W]	2.06
YTYGSNQHGQLGTNTRRGSRAPCK [F3Y]	3.54
YTFASNQHGQLGTNTRRGSRAPCK [G4A]	3.44
YTFCSNQHGQLGTNTRRGSRAPCK [G4C]	2.91
YTFDSNQHGQLGTNTRRGSRAPCK [G4D]	4.39
YTFESNQHGQLGTNTRRGSRAPCK [G4E]	4.33
YTFFSNQHGQLGTNTRRGSRAPCK [G4F]	3.64
YTFHSNQHGQLGTNTRRGSRAPCK [G4H]	3.91
YTFISNQHGQLGTNTRRGSRAPCK [G4I]	3.72
YTFKSNQHGQLGTNTRRGSRAPCK [G4K]	3.6
YTFLSNQHGQLGTNTRRGSRAPCK [G4L]	3.99
YTFMSNQHGQLGTNTRRGSRAPCK [G4M]	3.44
YTFNSNQHGQLGTNTRRGSRAPCK [G4N]	3.82
YTFPSNQHGQLGTNTRRGSRAPCK [G4P]	4.19
YTFQSNQHGQLGTNTRRGSRAPCK [G4Q]	4.04
YTFRSNQHGQLGTNTRRGSRAPCK [G4R]	4.36
YTFSSNQHGQLGTNTRRGSRAPCK [G4S]	3.66
YTFTSNQHGQLGTNTRRGSRAPCK [G4T]	3.54
YTFVSNQHGQLGTNTRRGSRAPCK [G4V]	4.2
YTFWSNQHGQLGTNTRRGSRAPCK [G4W]	2.91
YTFYSNQHGQLGTNTRRGSRAPCK [G4Y]	3.42
YTFGANQHGQLGTNTRRGSRAPCK [S5A]	3.63

Variant	protein stability index
YTFGCNQHGQLGTNTRRGSRAPCK [S5C]	3.72
YTFGDNQHGQLGTNTRRGSRAPCK [S5D]	4.53
YTFGENQHGQLGTNTRRGSRAPCK [S5E]	4.61
YTFGFNQHGQLGTNTRRGSRAPCK [S5F]	2.23
YTFGGNQHGQLGTNTRRGSRAPCK [S5G]	3.86
YTFGHNQHGQLGTNTRRGSRAPCK [S5H]	3.66
YTFGINQHGQLGTNTRRGSRAPCK [S5I]	3.44
YTFGKNQHGQLGTNTRRGSRAPCK [S5K]	3.5
YTFGLNQHGQLGTNTRRGSRAPCK [S5L]	3.62
YTFGMNQHGQLGTNTRRGSRAPCK [S5M]	4.11
YTFGNNQHGQLGTNTRRGSRAPCK [S5N]	4.14
YTFGPNQHGQLGTNTRRGSRAPCK [S5P]	3.84
YTFGQNQHGQLGTNTRRGSRAPCK [S5Q]	4.01
YTFGRNQHGQLGTNTRRGSRAPCK [S5R]	3.96
YTFGTNQHGQLGTNTRRGSRAPCK [S5T]	4.36
YTFGVNQHGQLGTNTRRGSRAPCK [S5V]	4.09
YTFGWNQHGQLGTNTRRGSRAPCK [S5W]	2.67
YTFGYNQHGQLGTNTRRGSRAPCK [S5Y]	2.49
YTFGSAQHGQLGTNTRRGSRAPCK [N6A]	3.94
YTFGSCQHGQLGTNTRRGSRAPCK [N6C]	3.78
YTFGSDQHGQLGTNTRRGSRAPCK [N6D]	4.24
YTFGSEQHGQLGTNTRRGSRAPCK [N6E]	4.44
YTFGSFQHGQLGTNTRRGSRAPCK [N6F]	2.61
YTFGSGQHGQLGTNTRRGSRAPCK [N6G]	3.52

Variant	protein stability index
YTFGSHQHGQLGTNTRRGSRAPCK [N6H]	3.75
YTFGSIQHGQLGTNTRRGSRAPCK [N6I]	3.6
YTFGSKQHGQLGTNTRRGSRAPCK [N6K]	3.44
YTFGSLQHGQLGTNTRRGSRAPCK [N6L]	3.29
YTFGSMQHGQLGTNTRRGSRAPCK [N6M]	3.44
YTFGSPQHGQLGTNTRRGSRAPCK [N6P]	4.07
YTFGSQQHGQLGTNTRRGSRAPCK [N6Q]	4.21
YTFGSRQHGQLGTNTRRGSRAPCK [N6R]	4.18
YTFGSSQHGQLGTNTRRGSRAPCK [N6S]	3.86
YTFGSTQHGQLGTNTRRGSRAPCK [N6T]	3.54
YTFGSVQHGQLGTNTRRGSRAPCK [N6V]	3.75
YTFGSWQHGQLGTNTRRGSRAPCK [N6W]	3.06
YTFGSYQHGQLGTNTRRGSRAPCK [N6Y]	3.48
YTFGSNAHGQLGTNTRRGSRAPCK [Q7A]	3.55
YTFGSNCHGQLGTNTRRGSRAPCK [Q7C]	3.59
YTFGSNDHGQLGTNTRRGSRAPCK [Q7D]	3.98
YTFGSNEHGQLGTNTRRGSRAPCK [Q7E]	4.2
YTFGSNFHGQLGTNTRRGSRAPCK [Q7F]	1.54
YTFGSNGHGQLGTNTRRGSRAPCK [Q7G]	4.07
YTFGSNHHGQLGTNTRRGSRAPCK [Q7H]	3.84
YTFGSNIHGQLGTNTRRGSRAPCK [Q7I]	3.45
YTFGSNKHGQLGTNTRRGSRAPCK [Q7K]	3.8
